Results as given in patent US12517124B2, “Chimeric receptor for use in whole-cell sensors for detecting analytes of interest” (INSERM (Institut National de la Sante et de la Recherche …, priority 2017, dated 2026).

Columns and labels:
[1] = system: Green Fluorescent Protein (GFP) driven by the LexA promoter; type: cell-based, E. coli; settings: different IPTG concentrations
Excerpt: In order to prevent interference from endogenous E. coli LexA, we used the mutant LexA-408, and its corresponding promoter which is not recognized by the wild type LexA. We fused LexA DBD to a monomeric LBD that undergoes ligand-induced homodimerization. Thus, in the presence of ligand, LexA DBD should be able to bind DNA and repress target gene expression.
We used a single-domain VHH camelid antibody that can be dimerized upon binding to its ligand caffeine (termed VHH-Caffeine from herein). As a negative control we chose a VHH targeting RNase A (termed VHH-Control from herein).
Detection of caffeine using a LexA-VHH fusion. We built two chimeric proteins, expressed in E. coli cytoplasm, composed of an N-terminal LexA DBD and a C-terminal VHH, and placed their expression under the control of the pLacO1 promoter induced by isopropyl β-D-1-thiogalactopyranoside (IPTG). As a reporter, we used the Green Fluorescent Protein (GFP) driven by the LexA promoter. As positive and negative controls, we expressed full-length LexA and LexA DBD. […] We then characterized the behavior of cells expressing LexAVHH-Caffeine and LexA-VHH-Control in response to increasing concentrations of IPTG and caffeine (data not shown). […] We then monitored the response of the LexA-VHH fusions to increasing concentrations of caffeine at different IPTG concentrations. […] We calculated the fold repression of LexA-VHH-Caffeine.

[2] = system: reporter GFP through pCadBA promoter; assay: Activation of CadC transcriptional factor by periplasmic GCN4 domain oligomerization, GFP reporter, flow cytometry; type: cell-based, E. coli; settings: compared to construct without GCN4; 1 mM IPTG
Excerpt: CadC and LexA transcriptional factor DNA binding domain, Leucine zipper GCN4, VHHcafe and VHHRNase were synthesized by INTEGRATED DNA TECHNOLOGIES® (IDT®). Different DNA components such as GFP reporter, CadBA promoter, pLexA promoter and CadC variants were constructed into BIOBRICK® standard vector pSB4K5 by Gibson assembly methods. The resulting constructs were transformed into E. coli strain NEB®10beta (NEW ENGLAND BIOLABS®, NEB®) and determined their performance. In all constructs, the expression level of CadC variants are under the control of pLac-1 promoter, which can be induced by IPTG. The CadC variants control the expression of reporter GFP through pCadBA promoter.
Pick a single colony of CadC operating unit variant into 3 mL of LB/kanamycin medium and incubate in 37° C. overnight with vigorous shaking. The overnight culture is further diluted 100 fold into 3 mL of LB/kanamycin medium and incubated in 37° C. for 4 hours to reach to exponential phase (O.D=0.4˜0.6). […] The resulting cell culture was further analyzed with ATTUNE® NxT flow cytometer. […]

Row | Molecule | response to increasing concentrations of caffeine [1] | fold activation of downstream reporter gene (GFP) expression [2] [fold]
1 | full-length LexA: full-length LexA transcriptional repressor, positive control (protein, UniProt P0A7C2 1-202, looked up, full-length, full-length LexA transcriptional repressor, positive control) MKALTARQQEVFDLIRDHISQTGMPPTRAEIAQRLGFRSPNAAEEHLKALARKGVIEIVSGASRGIRLLQEEEEGLPLVGRVAAGEPLLAQQHIEGHYQVDPSLFKPNADFLLRVSGMSMKDIGIMDGDLLAVHKTQDVRNGQVVVARIDDEVTVKRLKKQGNKVELLPENSEFKPIVVDLRQQSFTIEGLAVGVIRNGDWL | not affected by caffeine | –
2 | CadC-wtTM-GCN4: CadC DNA binding domain, wild type CadC transmembrane region, C-terminal autodimerization leucine zipper GCN4 (protein) MQQPVVRVGEWLVTPSINQISRNGRQLTLEPRLIDLLVFFAQHSGEVLSRDELIDNVWKRSIVTNHVVTQSISELRKSLKDNDEDSPVYIATVPKRGYKLMVPVIWYSEEEGEEIMLSSPPPIPEAVPATDSPSHSLNIQNTATPPEQSPVKSKRFTTFWVWFFFLLSLGICVALVAFSSLDTRLPMLEDKVEELLSKNYHLENEVARL | – | 50
